# Laboratory results published in patent publication US20260176319A1 (KALLYOPE, published 2026).
# Starred links: 1 amine or outer side, 2 acyl side, 3 side chain; linkers in the order of their positions; H or OH if unused. Non-standard residues stand in square brackets, D forms with d. *: point of attachment. Trp(7-Me) = Cc1cccc2c(C[C@H](N)C(=O)O)c[nH]c12; d(γGlu) = O=C(O)[C@@H](CCC(=O)[*:2])N[*:1]; C18 diacid = O=C(O)CCCCCCCCCCCCCCCCC(=O)*; Palmitoyl = CCCCCCCCCCCCCCCC(=O)*; 3Pal = N[C@@H](Cc1cccnc1)C(=O)O; Nle = CCCC[C@H](N)C(=O)O; AEEA = NCCOCCOCC(=O)O; Aib = CC(C)(N)C(=O)O; Sar = CNCC(=O)O
# B1: Peptide 25 (peptide)
# peptide: GNHWAVXHLX
# modifications: not fully specified; Ac-Gly-Asn-His-Trp-Ala-Val-D-Ala-His-Leu-Nle-H2N(CH2)3NH2-OEG-OEG-(α-Palmitoyl-D-γGlu)
# B2: Peptide 47 (peptide)
# peptide: {C18 diacid}-[d(γGlu)][AEEA][AEEA]GNHWAV[dA]HL[Nle][Sar]-NH2
# SMILES: CCCC[C@H](NC(=O)[C@H](CC(C)C)NC(=O)[C@H](Cc1c[nH]cn1)NC(=O)[C@@H](C)NC(=O)[C@@H](NC(=O)[C@H](C)NC(=O)[C@H](Cc1c[nH]c2ccccc12)NC(=O)[C@H](Cc1c[nH]cn1)NC(=O)[C@H](CC(N)=O)NC(=O)CNC(=O)COCCOCCNC(=O)COCCOCCNC(=O)CC[C@@H](NC(=O)CCCCCCCCCCCCCCCCC(=O)O)C(=O)O)C(C)C)C(=O)N(C)CC(N)=O
# B3: Peptide 23 (peptide)
# peptide: Palmitoyl-[d(γGlu)][AEEA][AEEA]GNH[Trp(7-Me)]AV[Aib][3Pal]L[Nle][Sar]-NH2
# SMILES: CCCCCCCCCCCCCCCC(=O)N[C@H](CCC(=O)NCCOCCOCC(=O)NCCOCCOCC(=O)NCC(=O)N[C@@H](CC(N)=O)C(=O)N[C@@H](Cc1c[nH]cn1)C(=O)N[C@@H](Cc1c[nH]c2c(C)cccc12)C(=O)N[C@@H](C)C(=O)N[C@H](C(=O)NC(C)(C)C(=O)N[C@@H](Cc1cccnc1)C(=O)N[C@@H](CC(C)C)C(=O)N[C@@H](CCCC)C(=O)N(C)CC(N)=O)C(C)C)C(=O)O
# B4: Peptide 46 (peptide)
# peptide: {C18 diacid}-[dE][AEEA][AEEA]GNH[Trp(7-Me)]AV[dA]HL[Nle]-NH2
# SMILES: CCCC[C@H](NC(=O)[C@H](CC(C)C)NC(=O)[C@H](Cc1c[nH]cn1)NC(=O)[C@@H](C)NC(=O)[C@@H](NC(=O)[C@H](C)NC(=O)[C@H](Cc1c[nH]c2c(C)cccc12)NC(=O)[C@H](Cc1c[nH]cn1)NC(=O)[C@H](CC(N)=O)NC(=O)CNC(=O)COCCOCCNC(=O)COCCOCCNC(=O)[C@@H](CCC(=O)O)NC(=O)CCCCCCCCCCCCCCCCC(=O)O)C(C)C)C(N)=O
# B5: Peptide 26 (peptide)
# peptide: Palmitoyl-[d(γGlu)]GNHWAV[dA]HL[Nle]-NH2
# SMILES: CCCCCCCCCCCCCCCC(=O)N[C@H](CCC(=O)NCC(=O)N[C@@H](CC(N)=O)C(=O)N[C@@H](Cc1c[nH]cn1)C(=O)N[C@@H](Cc1c[nH]c2ccccc12)C(=O)N[C@@H](C)C(=O)N[C@H](C(=O)N[C@H](C)C(=O)N[C@@H](Cc1c[nH]cn1)C(=O)N[C@@H](CC(C)C)C(=O)N[C@@H](CCCC)C(N)=O)C(C)C)C(=O)O
# B6: Peptide 24 (peptide)
# peptide: Palmitoyl-[d(γGlu)][AEEA][AEEA]GEHWAV[Aib]HL[Nle]-NH2
# SMILES: CCCCCCCCCCCCCCCC(=O)N[C@H](CCC(=O)NCCOCCOCC(=O)NCCOCCOCC(=O)NCC(=O)N[C@@H](CCC(=O)O)C(=O)N[C@@H](Cc1c[nH]cn1)C(=O)N[C@@H](Cc1c[nH]c2ccccc12)C(=O)N[C@@H](C)C(=O)N[C@H](C(=O)NC(C)(C)C(=O)N[C@@H](Cc1c[nH]cn1)C(=O)N[C@@H](CC(C)C)C(=O)N[C@@H](CCCC)C(N)=O)C(C)C)C(=O)O
# B7: Peptide 2 (peptide)
# peptide: Palmitoyl-[d(γGlu)][AEEA][AEEA]GNHWAV[Aib][3Pal]L[Nle]-NH2
# SMILES: CCCCCCCCCCCCCCCC(=O)N[C@H](CCC(=O)NCCOCCOCC(=O)NCCOCCOCC(=O)NCC(=O)N[C@@H](CC(N)=O)C(=O)N[C@@H](Cc1c[nH]cn1)C(=O)N[C@@H](Cc1c[nH]c2ccccc12)C(=O)N[C@@H](C)C(=O)N[C@H](C(=O)NC(C)(C)C(=O)N[C@@H](Cc1cccnc1)C(=O)N[C@@H](CC(C)C)C(=O)N[C@@H](CCCC)C(N)=O)C(C)C)C(=O)O
# Target: human GRP receptor (human, UniProt P30550 1-384)
# Experiment: cell-based or functional assay
# human GRP receptor, sequence (P30550 whole entry): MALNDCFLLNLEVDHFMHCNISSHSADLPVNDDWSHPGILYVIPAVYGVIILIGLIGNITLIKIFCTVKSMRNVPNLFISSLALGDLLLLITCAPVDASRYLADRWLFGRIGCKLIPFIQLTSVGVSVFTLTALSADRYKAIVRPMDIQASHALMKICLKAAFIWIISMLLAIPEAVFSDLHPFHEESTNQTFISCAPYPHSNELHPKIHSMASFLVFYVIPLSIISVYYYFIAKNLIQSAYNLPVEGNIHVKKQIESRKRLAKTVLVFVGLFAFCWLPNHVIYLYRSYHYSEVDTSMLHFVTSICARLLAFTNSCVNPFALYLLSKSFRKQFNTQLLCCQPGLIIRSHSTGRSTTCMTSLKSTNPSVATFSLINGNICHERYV
row,Binder,hIP1 GRPR EC50 [nM]
1,B1,10000
2,B2,216
3,B3,1090
4,B4,9.9
5,B5,1.8
6,B6,183
7,B7,822
